Results taken from the supplement of paper PMC9876800.

System: peptide library, one residue held at a place counted from the S/T acceptor
Assay: relative phosphorylation of the sub-library (ratio to the mean residue at this position); higher = residue favoured
Conditions: human
Summary of the method: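 Relative sub-library phosphorylation, a ratio to the mean residue at that position, was obtained by phosphorimaging and densitometry of spots on streptavidin membranes. Before capture, purified recombinant kinases were incubated for 90 min under kinase-specific conditions with 50 μM biotinylated degenerate peptide sub-libraries and 50 μM ATP spiked with γ-32P-ATP. Each sub-library fixed one residue at one position around a central Ser/Thr.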

PRKAA2, construct: Full length, sequence (P54646 whole entry, looked up): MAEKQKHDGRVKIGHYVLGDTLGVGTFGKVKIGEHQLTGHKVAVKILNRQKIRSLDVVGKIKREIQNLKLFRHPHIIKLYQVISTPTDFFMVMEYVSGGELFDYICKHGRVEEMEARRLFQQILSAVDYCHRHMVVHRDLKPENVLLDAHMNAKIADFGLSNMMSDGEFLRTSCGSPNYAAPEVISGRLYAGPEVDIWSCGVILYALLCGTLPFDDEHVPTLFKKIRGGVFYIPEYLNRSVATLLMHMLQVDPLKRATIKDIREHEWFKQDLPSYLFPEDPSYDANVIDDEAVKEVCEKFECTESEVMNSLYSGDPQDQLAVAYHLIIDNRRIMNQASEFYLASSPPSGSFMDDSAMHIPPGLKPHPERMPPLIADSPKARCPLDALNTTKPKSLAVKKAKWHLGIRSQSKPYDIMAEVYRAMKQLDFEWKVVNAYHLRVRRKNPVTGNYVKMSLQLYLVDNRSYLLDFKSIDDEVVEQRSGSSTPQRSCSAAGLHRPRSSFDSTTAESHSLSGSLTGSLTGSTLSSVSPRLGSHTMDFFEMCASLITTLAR
PRKAA1, construct: Full length, sequence (Q13131 whole entry, looked up): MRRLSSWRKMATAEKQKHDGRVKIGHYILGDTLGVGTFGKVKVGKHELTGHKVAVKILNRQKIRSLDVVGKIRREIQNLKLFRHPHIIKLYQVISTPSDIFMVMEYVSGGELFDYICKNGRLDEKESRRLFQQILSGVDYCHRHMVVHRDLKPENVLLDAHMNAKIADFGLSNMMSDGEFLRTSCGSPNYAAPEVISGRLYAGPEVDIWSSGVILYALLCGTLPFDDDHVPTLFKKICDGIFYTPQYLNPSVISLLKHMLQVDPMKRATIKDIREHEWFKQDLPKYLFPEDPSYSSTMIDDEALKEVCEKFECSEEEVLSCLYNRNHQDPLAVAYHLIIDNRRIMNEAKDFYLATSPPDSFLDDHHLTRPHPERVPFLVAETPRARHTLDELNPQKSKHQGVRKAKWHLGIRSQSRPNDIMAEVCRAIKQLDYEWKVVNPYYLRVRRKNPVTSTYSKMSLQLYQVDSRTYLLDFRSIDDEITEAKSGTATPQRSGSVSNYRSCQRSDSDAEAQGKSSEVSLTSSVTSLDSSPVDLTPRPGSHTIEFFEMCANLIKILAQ
BUB1, construct: Full length, sequence (O43683 whole entry, looked up): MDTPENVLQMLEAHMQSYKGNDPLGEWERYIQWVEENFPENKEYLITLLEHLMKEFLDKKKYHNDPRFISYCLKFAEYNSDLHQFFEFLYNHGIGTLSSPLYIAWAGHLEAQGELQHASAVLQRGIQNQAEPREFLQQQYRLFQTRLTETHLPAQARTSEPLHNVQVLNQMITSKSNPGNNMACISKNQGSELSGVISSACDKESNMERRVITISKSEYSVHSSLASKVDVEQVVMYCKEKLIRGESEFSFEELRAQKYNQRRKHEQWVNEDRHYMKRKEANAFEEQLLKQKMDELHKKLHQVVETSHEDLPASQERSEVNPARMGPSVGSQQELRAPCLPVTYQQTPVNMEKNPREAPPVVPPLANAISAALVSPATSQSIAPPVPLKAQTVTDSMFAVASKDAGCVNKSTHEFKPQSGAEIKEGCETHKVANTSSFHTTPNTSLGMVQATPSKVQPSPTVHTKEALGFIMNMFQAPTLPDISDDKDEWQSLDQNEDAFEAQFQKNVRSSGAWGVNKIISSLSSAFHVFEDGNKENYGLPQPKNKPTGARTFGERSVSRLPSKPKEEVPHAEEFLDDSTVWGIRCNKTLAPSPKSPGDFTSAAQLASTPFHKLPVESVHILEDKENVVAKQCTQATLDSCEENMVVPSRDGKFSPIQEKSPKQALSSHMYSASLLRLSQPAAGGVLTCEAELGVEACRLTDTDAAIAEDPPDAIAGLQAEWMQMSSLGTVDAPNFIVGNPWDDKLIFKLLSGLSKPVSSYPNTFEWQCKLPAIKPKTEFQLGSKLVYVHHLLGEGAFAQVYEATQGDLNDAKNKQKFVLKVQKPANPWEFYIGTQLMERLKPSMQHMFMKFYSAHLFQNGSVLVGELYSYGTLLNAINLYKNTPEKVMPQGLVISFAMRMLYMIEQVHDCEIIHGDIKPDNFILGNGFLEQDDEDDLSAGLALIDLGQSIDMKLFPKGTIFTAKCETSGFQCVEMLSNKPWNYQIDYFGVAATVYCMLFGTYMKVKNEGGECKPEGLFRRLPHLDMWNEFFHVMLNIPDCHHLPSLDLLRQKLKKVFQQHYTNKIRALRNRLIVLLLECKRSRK
STK17A, construct: Full length, sequence (Q9UEE5 whole entry, looked up): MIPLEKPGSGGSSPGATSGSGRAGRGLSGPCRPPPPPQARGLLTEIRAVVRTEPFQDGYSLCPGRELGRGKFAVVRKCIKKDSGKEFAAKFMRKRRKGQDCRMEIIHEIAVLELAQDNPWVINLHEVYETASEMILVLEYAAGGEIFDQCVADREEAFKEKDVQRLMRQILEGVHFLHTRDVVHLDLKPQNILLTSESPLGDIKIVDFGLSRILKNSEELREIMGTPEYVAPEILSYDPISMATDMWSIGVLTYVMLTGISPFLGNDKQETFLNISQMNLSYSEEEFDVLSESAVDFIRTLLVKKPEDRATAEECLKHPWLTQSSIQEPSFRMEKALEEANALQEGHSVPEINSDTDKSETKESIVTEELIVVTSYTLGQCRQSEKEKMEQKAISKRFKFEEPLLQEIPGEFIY

BUB1, construct: Full length (from UniProt O43683)
relative phosphorylation
Conditions | at +1 | at +2 | at +3 | at +4 | at -1 | at -2 | at -3 | at -4 | at -5
A fixed | 0.963 | 0.738 | 0.95 | 0.855 | 0.796 | 0.718 | 1.66 | 1.24 | 0.423
D fixed | 0.375 | 0.267 | 0.416 | 0.455 | 0.321 | 0.411 | 0.232 | 0.61 | 0.245
E fixed | 0.325 | 0.331 | 0.379 | 0.424 | 0.289 | 0.284 | 0.347 | 0.865 | 0.246
F fixed | 0.541 | 1.13 | 0.784 | 0.78 | 0.855 | 0.411 | 0.389 | 0.739 | 0.486
G fixed | 1.34 | 1.09 | 1.09 | 1.31 | 0.502 | 0.418 | 0.918 | 1.06 | 0.377
H fixed | 0.807 | 1.22 | 0.969 | 1.04 | 0.902 | 0.597 | 0.591 | 0.882 | 0.393
I fixed | 0.594 | 0.761 | 0.565 | 1 | 0.551 | 1.8 | 0.839 | 0.556 | 1.12
K fixed | 3.21 | 2.02 | 1.22 | 1.93 | 2.21 | 3.31 | 1.2 | 1.66 | 0.472
L fixed | 0.552 | 0.851 | 0.543 | 0.849 | 1.43 | 1.13 | 0.526 | 1.16 | 4.97
M fixed | 0.759 | 0.986 | 0.777 | 0.96 | 1.32 | 0.851 | 0.656 | 1.13 | 1.3
N fixed | 0.662 | 0.583 | 0.711 | 1.07 | 0.566 | 0.584 | 0.616 | 0.558 | 0.388
P fixed | 0.367 | 2.16 | 4.04 | 0.962 | 1.33 | 0.721 | 3.77 | 1.5 | 1.53
Q fixed | 0.972 | 0.747 | 0.767 | 1.01 | 0.77 | 0.868 | 1.24 | 1.07 | 0.905
R fixed | 3.99 | 2.14 | 1.41 | 1.8 | 2.76 | 2.32 | 2.38 | 1.64 | 1.31
V fixed | 0.611 | 0.777 | 0.631 | 0.78 | 0.435 | 1.65 | 0.791 | 0.676 | 0.543
W fixed | 0.497 | 0.491 | 0.936 | 0.949 | 0.705 | 0.485 | 0.442 | 0.829 | 0.412
Y fixed | 0.442 | 0.713 | 0.813 | 0.824 | 1.26 | 0.452 | 0.405 | 0.827 | 1.87
pThr fixed | 0.373 | 0.328 | 0.586 | 0.443 | 0.199 | 0.249 | 0.375 | 0.475 | 0.408
pTyr fixed | 0.252 | 0.29 | 0.697 | 0.463 | 0.315 | 0.281 | 0.256 | 0.414 | 0.993

PRKAA1, construct: Full length (from UniProt Q13131)
relative phosphorylation
Conditions | at +1 | at +2 | at +3 | at +4 | at -1 | at -2 | at -3 | at -4 | at -5
A fixed | 0.927 | 1.41 | 0.812 | 0.574 | 1.05 | 1.27 | 0.845 | 1.21 | 0.908
D fixed | 0.609 | 0.529 | 1.53 | 0.606 | 0.666 | 0.413 | 0.32 | 0.497 | 0.381
E fixed | 0.781 | 0.496 | 0.935 | 0.516 | 0.578 | 0.475 | 0.453 | 0.63 | 0.374
F fixed | 1.63 | 0.899 | 1.1 | 1.25 | 0.643 | 0.718 | 0.516 | 0.682 | 1.2
G fixed | 0.773 | 0.759 | 0.902 | 0.659 | 1.4 | 1.05 | 0.889 | 1.2 | 0.857
H fixed | 1.18 | 1.48 | 1.5 | 0.757 | 1.11 | 1.28 | 1.28 | 1.19 | 0.816
I fixed | 0.75 | 1.38 | 0.705 | 2.17 | 0.379 | 0.944 | 0.402 | 0.659 | 1.41
K fixed | 1 | 0.723 | 1.15 | 0.753 | 1.93 | 1.73 | 2.54 | 2.1 | 1.35
L fixed | 0.813 | 1.23 | 0.803 | 2.67 | 0.63 | 0.541 | 0.45 | 0.643 | 1.63
M fixed | 1.49 | 0.855 | 0.833 | 1.89 | 0.972 | 0.638 | 0.609 | 0.895 | 1.5
N fixed | 0.86 | 1.08 | 1.55 | 0.775 | 1.12 | 1.7 | 0.869 | 0.947 | 0.724
P fixed | 0.231 | 1.31 | 0.39 | 0.767 | 1.32 | 0.783 | 1.04 | 1.19 | 0.944
Q fixed | 1.23 | 0.893 | 0.996 | 0.704 | 1.31 | 0.92 | 0.879 | 0.888 | 0.847
R fixed | 1.24 | 0.649 | 1.09 | 0.691 | 1.66 | 1.81 | 4.12 | 2.17 | 1.71
V fixed | 0.893 | 1.48 | 0.65 | 0.969 | 0.589 | 1.3 | 0.477 | 0.728 | 0.784
W fixed | 1.35 | 0.922 | 1.19 | 0.693 | 0.782 | 0.705 | 0.633 | 0.681 | 0.731
Y fixed | 1.23 | 0.897 | 0.866 | 0.556 | 0.87 | 0.716 | 0.677 | 0.705 | 0.836
pThr fixed | 0.737 | 0.513 | 0.427 | 0.606 | 0.418 | 0.679 | 0.632 | 0.724 | 0.726
pTyr fixed | 0.604 | 0.5 | 0.601 | 0.485 | 0.685 | 0.568 | 0.51 | 0.492 | 0.778

STK17A, construct: Full length (from UniProt Q9UEE5)
relative phosphorylation
Conditions | at +1 | at +2 | at +3 | at +4 | at -1 | at -2 | at -3 | at -4 | at -5
A fixed | 0.4 | 0.562 | 0.679 | 0.808 | 0.636 | 1.04 | 0.701 | 0.927 | 0.979
D fixed | 0.954 | 0.564 | 0.686 | 0.86 | 0.85 | 0.657 | 0.799 | 1.06 | 0.922
E fixed | 0.984 | 0.612 | 1.18 | 0.917 | 0.967 | 0.597 | 0.681 | 1.09 | 0.916
F fixed | 4.75 | 0.832 | 1.05 | 0.896 | 1.11 | 0.943 | 0.802 | 0.772 | 0.876
G fixed | 0.63 | 0.444 | 0.889 | 0.868 | 0.801 | 1.2 | 0.868 | 1.23 | 1.11
H fixed | 0.502 | 1.83 | 1.12 | 1.15 | 1.16 | 1.25 | 1.02 | 1.03 | 1.06
I fixed | 0.75 | 0.709 | 1.49 | 0.742 | 0.621 | 0.491 | 0.65 | 0.586 | 0.721
K fixed | 0.498 | 1.7 | 1.08 | 1.49 | 1.23 | 1.32 | 1.28 | 1.43 | 1.63
L fixed | 0.678 | 0.732 | 0.989 | 0.713 | 1.24 | 0.648 | 0.783 | 0.62 | 0.872
M fixed | 1.41 | 0.787 | 0.984 | 0.669 | 1.19 | 0.892 | 1.13 | 0.798 | 0.837
N fixed | 0.558 | 0.93 | 0.733 | 0.988 | 1.06 | 1.05 | 0.902 | 1 | 1.06
P fixed | 0.251 | 0.332 | 0.539 | 0.952 | 0.589 | 0.673 | 0.888 | 0.979 | 0.993
Q fixed | 1.66 | 1.09 | 0.815 | 1 | 0.931 | 0.934 | 0.989 | 0.782 | 0.704
R fixed | 0.494 | 2.6 | 1.17 | 1.7 | 1.18 | 1.8 | 2.58 | 1.32 | 1.38
V fixed | 0.53 | 0.708 | 1.04 | 0.693 | 0.721 | 0.638 | 0.56 | 0.73 | 0.829
W fixed | 0.974 | 1.16 | 1.2 | 1.33 | 1.07 | 1.83 | 1.43 | 1.81 | 1.16
Y fixed | 0.972 | 1.41 | 1.37 | 1.23 | 1.64 | 1.04 | 0.945 | 0.842 | 0.947
pThr fixed | 6.24 | 3.31 | 1.2 | 1.45 | 0.813 | 0.788 | 0.9 | 0.977 | 0.971
pTyr fixed | 1.4 | 1.6 | 3.08 | 1.39 | 1.61 | 0.941 | 1.06 | 1.17 | 0.918

PRKAA2, construct: Full length (from UniProt P54646)
relative phosphorylation
Conditions | at +1 | at +2 | at +3 | at +4 | at -1 | at -2 | at -3 | at -4 | at -5
A fixed | 1.05 | 1.53 | 0.803 | 0.597 | 1.14 | 1.34 | 0.699 | 1.19 | 0.889
D fixed | 0.54 | 0.575 | 1.53 | 0.614 | 0.593 | 0.42 | 0.258 | 0.419 | 0.336
E fixed | 0.708 | 0.492 | 0.805 | 0.454 | 0.495 | 0.427 | 0.368 | 0.546 | 0.308
F fixed | 1.88 | 0.855 | 1.01 | 1.27 | 0.734 | 0.655 | 0.4 | 0.67 | 1.3
G fixed | 0.711 | 0.724 | 0.933 | 0.637 | 1.38 | 0.933 | 0.739 | 1.13 | 0.815
H fixed | 1.15 | 1.48 | 2.39 | 0.747 | 1.12 | 1.18 | 1.26 | 1.26 | 0.8
I fixed | 0.565 | 1.19 | 0.531 | 2.12 | 0.339 | 0.925 | 0.335 | 0.577 | 1.42
K fixed | 1.01 | 0.689 | 1.01 | 0.777 | 1.9 | 1.62 | 2.75 | 2.22 | 1.27
L fixed | 0.814 | 1.29 | 0.677 | 2.7 | 0.714 | 0.548 | 0.398 | 0.692 | 1.64
M fixed | 1.33 | 0.833 | 0.693 | 2.04 | 0.978 | 0.575 | 0.473 | 0.928 | 1.51
N fixed | 0.942 | 1.18 | 1.69 | 0.864 | 1.16 | 1.93 | 0.821 | 0.801 | 0.684
P fixed | 0.269 | 1.37 | 0.41 | 0.789 | 1.51 | 0.826 | 0.991 | 1.31 | 0.964
Q fixed | 1.41 | 1.03 | 0.978 | 0.806 | 1.22 | 0.981 | 0.851 | 0.874 | 0.825
R fixed | 1.23 | 0.652 | 1.06 | 0.618 | 1.58 | 1.84 | 5.14 | 2.31 | 1.89
V fixed | 0.779 | 1.34 | 0.506 | 0.876 | 0.49 | 1.47 | 0.365 | 0.7 | 0.769
W fixed | 1.35 | 0.966 | 1.16 | 0.617 | 0.73 | 0.661 | 0.559 | 0.666 | 0.723
Y fixed | 1.27 | 0.806 | 0.808 | 0.479 | 0.903 | 0.676 | 0.596 | 0.713 | 0.854
pThr fixed | 0.69 | 0.503 | 0.35 | 0.709 | 0.324 | 0.504 | 0.49 | 0.644 | 0.588
pTyr fixed | 0.649 | 0.452 | 0.57 | 0.529 | 0.607 | 0.533 | 0.471 | 0.475 | 0.696
